Assay results taken from patent publication US20040197818A1 (UNIVERSITY OF UTAH RESEARCH FOUNDATION, published 2004).

B1: rMiRP1 (other)
chain: MTTLANLTQTLEDAFKKVFITYMDSWRRNTTAEQQALQARVDAENFYYVILYLMVMIGMFAFIVVAILVSTVKSKRREHSQDPYHQYIVEDWQQKYRSQILHLEDSKATIHENLGATGFTVSP
modifications: 35S-methionine label in the in vitro binding assay
B2: wild type human MiRP1 (other)
chain: MSTLSNFTQTLEDVFRRIFITYMDNWRQNTTAEQEALQAKVDAENFYYVILYLMVMIGMFSFIIVAILVSTVKSKRREHSNDPYHQYIVEDWQEKYKSQILNLEESKATIHENIGAAGFKMSP
B3: T8A-hMiRP1 (other)
chain: MSTLSNFAQTLEDVFRRIFITYMDNWRQNTTAEQEALQAKVDAENFYYVILYLMVMIGMFSFIIVAILVSTVKSKRREHSNDPYHQYIVEDWQEKYKSQILNLEESKATIHENIGAAGFKMSP
B4: Q9E-hMiRP1 (other)
chain: MSTLSNFTETLEDVFRRIFITYMDNWRQNTTAEQEALQAKVDAENFYYVILYLMVMIGMFSFIIVAILVSTVKSKRREHSNDPYHQYIVEDWQEKYKSQILNLEESKATIHENIGAAGFKMSP
B5: M54T-hMiRP1 (other)
chain: MSTLSNFTQTLEDVFRRIFITYMDNWRQNTTAEQEALQAKVDAENFYYVILYLTVMIGMFSFIIVAILVSTVKSKRREHSNDPYHQYIVEDWQEKYKSQILNLEESKATIHENIGAAGFKMSP

Key:
HERG [1] = biological target: T1, HERG (human, UniProt Q12809 1-1159); assay: cell-based or functional assay
T1 sequence (Q12809 whole entry): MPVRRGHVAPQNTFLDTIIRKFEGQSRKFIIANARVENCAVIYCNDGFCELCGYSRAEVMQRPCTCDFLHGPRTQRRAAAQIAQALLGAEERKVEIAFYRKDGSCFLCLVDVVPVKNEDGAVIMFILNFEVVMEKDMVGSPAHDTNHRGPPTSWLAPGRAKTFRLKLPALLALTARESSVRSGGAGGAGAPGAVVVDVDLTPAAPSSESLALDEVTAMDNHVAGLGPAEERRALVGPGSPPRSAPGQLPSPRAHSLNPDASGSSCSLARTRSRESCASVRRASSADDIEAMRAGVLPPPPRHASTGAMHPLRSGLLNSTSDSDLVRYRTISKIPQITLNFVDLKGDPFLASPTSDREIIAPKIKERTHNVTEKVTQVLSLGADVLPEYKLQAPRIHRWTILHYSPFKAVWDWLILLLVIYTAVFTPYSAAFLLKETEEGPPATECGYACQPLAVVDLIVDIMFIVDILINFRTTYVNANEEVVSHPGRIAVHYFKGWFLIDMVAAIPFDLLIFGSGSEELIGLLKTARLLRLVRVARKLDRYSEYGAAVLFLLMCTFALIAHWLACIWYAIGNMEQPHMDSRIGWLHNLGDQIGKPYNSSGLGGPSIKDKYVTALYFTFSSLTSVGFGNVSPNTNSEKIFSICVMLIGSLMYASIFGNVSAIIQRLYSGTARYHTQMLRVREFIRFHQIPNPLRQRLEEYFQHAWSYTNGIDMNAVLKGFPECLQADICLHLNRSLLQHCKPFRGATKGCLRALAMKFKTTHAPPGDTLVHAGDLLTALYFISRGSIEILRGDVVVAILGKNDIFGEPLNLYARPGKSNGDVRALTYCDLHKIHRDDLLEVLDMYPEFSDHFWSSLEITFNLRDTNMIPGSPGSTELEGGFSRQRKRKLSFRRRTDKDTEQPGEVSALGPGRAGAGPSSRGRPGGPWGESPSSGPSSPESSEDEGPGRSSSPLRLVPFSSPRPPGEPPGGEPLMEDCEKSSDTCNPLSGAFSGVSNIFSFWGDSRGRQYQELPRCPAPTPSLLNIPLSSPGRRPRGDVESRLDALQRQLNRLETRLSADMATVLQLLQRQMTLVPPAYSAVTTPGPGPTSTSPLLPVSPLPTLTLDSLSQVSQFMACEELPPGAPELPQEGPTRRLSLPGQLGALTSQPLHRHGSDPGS

HERG [2] = biological target: T1, HERG; assay: cell-based or functional assay; remark: listed apart in the source

Binder | deactivation rate, oocytes (HERG [1]) | deactivation rate, plasma-like ionic conditions, whole-cell (HERG [1]) | deactivation rate at -120 mV, CHO cells (HERG [1]) | activation V1/2 (HERG [2]) | deactivation fast time constant (HERG [2]) | deactivation ratio If/(Is + If) (HERG [2]) | deactivation slow time constant (HERG [2]) | deactivation rate against channels with wild type hMiRP1 (HERG [1])
B1 | 7 fold | ~2 fold |  |  |  |  |  | 
B2 |  |  | ~3 fold | -21 mV | 80 | 0.82 | 483 | 
B3 |  |  |  | -29 mV | 100 | 0.83 | 590 | 
B4 |  |  |  | -12 mV | 100 | 0.8 | 750 | 
B5 |  |  |  | -21 mV | 37 | 0.81 | 266 | ~3 fold
